# Experimental data published in publication PMC12521527, “In vivo self-assembled nano-PROTAC for the dual degradation of AR and HSP90 to overcome castration-resistant prostate cancer resistance” (Signal Transduction and Targeted Therapy, 2025).
# Numbered stars: 1 amine (or outer) side, 2 acyl side, 3 side chain; on linkers, the order of the positions; unused ones are H or OH. Square brackets hold non-standard residues; d marks the D form. Peptide text beside a SMILES is read from it. * marks the point of attachment. X2 = CC1(C)C(=O)N(c2ccc(C#N)c(C(F)(F)F)c2)C(=S)N1c1ccc(C(=O)*)c(F)c1; X1 = O=C1CCC(N2C(=O)c3cccc(N(CC(=O)[*:2])[*:1])c3C2=O)C(=O)N1; EuK = O=C(O)CC[C@H](NC(=O)N[C@@H](CCCCN*)C(=O)O)C(=O)O; 2Nal = N[C@@H](Cc1ccc2ccccc2c1)C(=O)O
# What was measured:
# [1] = target: CRBN, with prebound AR (AR: Psa-AR: CRBN) (Homo sapiens, UniProt P10275+Q96SW2); experiment: MST binding of binary complex (Psa-AR: AR) to CRBN; conditions: binary complex Psa-AR: AR titrated against RED-CRBN 400 nM, 20 min incubation, 22 °C, n = 3, read-out: Kd, affinity for CRBN in the presence of prebound AR
# Chain of CRBN, with prebound AR (AR: Psa-AR: CRBN) (Q96SW2 whole entry): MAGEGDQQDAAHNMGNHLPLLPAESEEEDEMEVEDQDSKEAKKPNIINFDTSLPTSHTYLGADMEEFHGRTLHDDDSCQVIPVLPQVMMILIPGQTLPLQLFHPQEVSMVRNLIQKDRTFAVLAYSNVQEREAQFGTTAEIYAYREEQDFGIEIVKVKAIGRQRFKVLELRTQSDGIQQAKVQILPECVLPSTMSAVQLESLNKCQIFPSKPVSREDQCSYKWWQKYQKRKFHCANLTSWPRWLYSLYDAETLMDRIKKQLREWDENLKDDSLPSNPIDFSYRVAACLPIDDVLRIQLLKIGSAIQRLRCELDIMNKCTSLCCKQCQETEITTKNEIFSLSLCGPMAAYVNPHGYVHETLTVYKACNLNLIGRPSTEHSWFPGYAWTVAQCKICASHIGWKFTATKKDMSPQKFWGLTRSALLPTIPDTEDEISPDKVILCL
# Chain of CRBN, with prebound AR (AR: Psa-AR: CRBN) (P10275 whole entry): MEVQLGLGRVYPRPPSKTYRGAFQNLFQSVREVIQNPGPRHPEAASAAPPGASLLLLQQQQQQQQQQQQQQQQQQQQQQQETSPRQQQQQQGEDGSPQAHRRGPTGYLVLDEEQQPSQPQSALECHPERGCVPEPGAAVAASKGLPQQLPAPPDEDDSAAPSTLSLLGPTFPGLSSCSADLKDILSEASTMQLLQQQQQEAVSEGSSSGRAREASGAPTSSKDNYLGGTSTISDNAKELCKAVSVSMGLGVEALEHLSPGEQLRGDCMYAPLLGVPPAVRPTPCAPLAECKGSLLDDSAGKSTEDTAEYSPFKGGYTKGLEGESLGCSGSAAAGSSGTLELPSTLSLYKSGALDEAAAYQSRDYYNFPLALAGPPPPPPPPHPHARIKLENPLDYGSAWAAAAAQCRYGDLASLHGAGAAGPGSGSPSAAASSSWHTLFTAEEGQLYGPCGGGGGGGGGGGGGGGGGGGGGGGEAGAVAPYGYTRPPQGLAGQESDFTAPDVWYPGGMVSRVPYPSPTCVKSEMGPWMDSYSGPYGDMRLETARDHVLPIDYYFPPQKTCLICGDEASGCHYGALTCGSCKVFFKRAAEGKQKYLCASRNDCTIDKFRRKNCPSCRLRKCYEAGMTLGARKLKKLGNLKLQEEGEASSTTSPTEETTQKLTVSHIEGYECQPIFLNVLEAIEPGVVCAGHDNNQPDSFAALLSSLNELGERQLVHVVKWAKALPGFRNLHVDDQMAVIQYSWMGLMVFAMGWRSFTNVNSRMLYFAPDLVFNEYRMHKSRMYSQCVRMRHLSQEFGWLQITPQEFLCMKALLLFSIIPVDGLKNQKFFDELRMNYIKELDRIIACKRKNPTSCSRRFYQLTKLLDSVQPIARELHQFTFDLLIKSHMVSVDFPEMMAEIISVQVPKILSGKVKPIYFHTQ
# Source text: Fig. 3 Polynary nanocomposite (AR: Psa-AR: CRBN) formation. a Dose‒response curve for the binding interaction between Psa-AR and the AR protein; n = 3 per group. b Dose‒response curve for the binding interaction between Psa-AR and the CRBN protein; n = 3 per group. c Dose‒response curve for the binding interaction between the binary complex (Psa-AR: AR) and CRBN, n = 3 per group. d In vitro Psa-AR self-assembly, protein binding and degradation. e Representative 22Rv1 cell CLSM images of FITC-labeled Psa-AR assembly (green channel) interacting with HSP90 (red channel) and its colocalization analysis (1–1’). […] Scale bar: 10 μm.
# MST (NanoTemper Technologies GmbH, Munich, Germany) was utilized to evaluate the binding affinity between Psa-AR and RED-NHS-labeled PSMA, AR, or CRBN proteins. The PSMA, AR, and CRBN proteins were labeled with the Protein Labeling Kit RED-NHS 2nd Generation (Amine Reactive). RED-PSMA, RED-AR, and RED-CRBN proteins were diluted to a final concentration of 400 nM with PBS-T buffer (0.05% Tween 20), where the fluorescence signals satisfied the typical detection limit of the Monolith NT.115 instrument (NanoTemper Technologies). The binding affinity between Psa-AR and the RED-NHS-labeled AR protein was assessed. […] Then, 10 µL of RED-CRBN was added to each sample to achieve a final concentration of 400 nM. […] The data were analyzed by NanoTemper analysis software.
# [2] = In vivo and ex vivo fluorescence imaging (biodistribution); design: species or system BALB/c nude mice; conditions: Cy7-labeled, 30 mg/kg intravenous
# Protocol: Fig. 5 In vivo evaluation of Psa-AR enrichment and retention. a Representative immunohistochemical (IHC) staining of PSMA and AR expression in tumor tissues from three patients with prostate cancer before and after androgen deprivation therapy. The expression levels of PSMA and AR were assessed in serial sections at identical locations. Scale bars: 40 μm. b In vivo fluorescence images of 22Rv1 xenograft mice after treatment with Cy7-labeled P-AR and Psa-AR (30 mg/kg in 200 μL of PBS) for 2 h and 24 h. c Biodistribution in the tumors and main organs of 22Rv1 xenograft mice after injection with Cy7-labeled Psa-AR (30 mg/kg in 200 μL of PBS) for 24 h. (H Heart, Li Liver, Sp Spleen, Lu Lung, Ki Kidney, T Tumor). d Quantitative analysis of the fluorescence images in (c), n = 3 per group
# BALB/c nude mice (6–8 weeks old, 16–18 g) were housed in a specific-pathogen-free (SPF) environment. All experiments were conducted in accordance with the Guidelines for the Management and Use of Laboratory Animals and were approved by the Animal Research Committee of the National Center for Nanoscience and Technology (NCNST 21-202503-0020). […] For ex vivo fluorescence imaging, 22Rv1 xenograft mice were intravenously injected with Cy7-labeled Psa-AR (30 mg/kg in 200 µL of PBS) and sacrificed 24 h post-injection to excise major organs (heart, liver, spleen, lung, and kidney) and tumors.
smiles,measurement,setting,value
CC1(C)C(=O)N(c2ccc(C#N)c(C(F)(F)F)c2)C(=S)N1c1ccc(C(=O)NCCCC[C@H](NC(=O)CNc2cccc3c2C(=O)N(C2CCC(=O)NC2=O)C3=O)C(=O)N[C@@H](CS)C(=O)N[C@@H](CCC(N)=O)C(=O)N[C@@H](Cc2ccc(O)cc2)C(=O)N[C@@H](CC(N)=O)C(=O)N[C@@H](CCC(N)=O)C(=O)N[C@@H](Cc2ccc(O)cc2)C(=O)N[C@@H](Cc2ccc(O)cc2)C(=O)N[C@@H](Cc2ccc3ccccc3c2)C(=O)NCCCC[C@H](NC(=O)N[C@@H](CCC(=O)O)C(=O)O)C(=O)O)c(F)c1 (stereo partly drawn) [Psa-AR] (H-[X1]K(X2)CQYNQYY[2Nal]-EuK),Kd,[1],1140 nM
same,tumor deposition relative to P-AR,"[2]; 2 h, 22Rv1 xenograft mice",4 fold
same,"tumor retention, residual signal at 24 h",[2]; 24 h,78%
